{"source": "paper PMC9401524", "about": "(Cancer Discovery, 2021)", "molecules": {"B1": {"name": "seribantumab (antibody, chains of the INN, looked up)", "heavy": "EVQLLESGGGLVQPGGSLRLSCAASGFTFSHYVMAWVRQAPGKGLEWVSSISSSGGWTLYADSVKGRFTISRDNSKNTLYLQMNSLRAEDTAVYYCTRGLKMATIFDYWGQGTLVTVSSASTKGPSVFPLAPCSRSTSESTAALGCLVKDYFPEPVTVSWNSGALTSGVHTFPAVLQSSGLYSLSSVVTVPSSNFGTQTYTCNVDHKPSNTKVDKTVERKCCVECPPCPAPPVAGPSVFLFPPKPKDTLMISRTPEVTCVVVDVSHEDPEVQFNWYVDGVEVHNAKTKPREEQFNSTFRVVSVLTVVHQDWLNGKEYKCKVSNKGLPAPIEKTISKTKGQPREPQVYTLPPSREEMTKNQVSLTCLVKGFYPSDIAVEWESNGQPENNYKTTPPMLDSDGSFFLYSKLTVDKSRWQQGNVFSCSVMHEALHNHYTQKSLSLSPG", "light": "QSALTQPASVSGSPGQSITISCTGTSSDVGSYNVVSWYQQHPGKAPKLIIYEVSQRPSGVSNRFSGSKSGNTASLTISGLQTEDEADYYCCSYAGSSIFVIFGGGTKVTVLGQPKAAPSVTLFPPSSEELQANKATLVCLVSDFYPGAVTVAWKADGSPVKVGVETTKPSKQSNNKYAASSYLSLTPEQWKSHRSYSCRVTHEGSTVEKTVAPAECS"}}, "key": {"EGFR-mutated NSCLC": {"system": "EGFR-mutated NSCLC", "details": "cited from earlier work"}, "[1]": {"assay": "Phase I study U31402-A-U102, HER3-DXd i.v. once every 3 weeks: safety", "format": "in vivo, human"}, "[2]": {"details": "all patients 3.2/4.8/5.6/6.4 mg/kg (n = 81)"}}, "note": "Marks after values point to notes of the source that are not given here."}
{"molecule": "C=CC(=O)Nc1cc(Nc2nccc(-c3cn(C)c4ccccc34)n2)c(OC)cc1N(C)CCN(C)C", "note": "[osimertinib, reference compound]", "values": [{"measurement": "Median OS", "setting": "EGFR-mutated NSCLC; third-generation EGFR TKI compared with first-generation EGFR TKIs", "result": 38.6, "unit": "months"}]}
{"molecule": "Patritumab deruxtecan [HER3-DXd]", "values": [{"measurement": "Patients who experienced dose-limiting toxicities", "setting": "[1]; 4.8 mg/kg dose group, grade 3 neutrophil count decreased, grade 4 platelet count decrease, white blood cell count decrease", "result": 1, "unit": "patient"}, {"measurement": "Patients who experienced dose-limiting toxicities", "setting": "[1]; 6.4 mg/kg dose group, grade 4 platelet count decrease", "result": 3, "unit": "patients"}, {"measurement": "Patients who experienced dose-limiting toxicities", "setting": "[1]; […] dose group, grade 3 febrile neutropenia and grade 4 platelet count decrease", "result": 1, "unit": "patient"}, {"measurement": "Adjudicated treatment-related ILD, patients", "setting": "[1]; all doses (4/81)", "result": 5, "unit": "%"}, {"measurement": "TEAEs associated with death, patients", "setting": "[1]; all doses (5/81), none judged related to study treatment", "result": 6, "unit": "%"}, {"measurement": "Treatment discontinued due to TEAEs, patients", "setting": "[1]; all doses (7/81)", "result": 9, "unit": "%"}, {"measurement": "Grade 4 thrombocytopenia, patients", "setting": "[1]; all doses (11/81)", "result": 13.6, "unit": "%"}, {"measurement": "Grade ≥3 neutropenia, patients", "setting": "[1]; all doses (12/81)", "result": 15, "unit": "%"}, {"measurement": "TEAEs associated with dose reduction, patients", "setting": "[1]; all doses (18/81)", "result": 22, "unit": "%"}, {"measurement": "Grade ≥3 thrombocytopenia, patients", "setting": "[1]; all doses (21/81)", "result": 26, "unit": "%"}, {"measurement": "TEAEs associated with dose interruption, patients", "setting": "[1]; all doses (30/81)", "result": 37, "unit": "%"}, {"measurement": "TEAE nausea, patients", "setting": "[1]; all doses (49/81)", "result": 60, "unit": "%"}, {"measurement": "Grade ≥3 TEAEs, patients", "setting": "[1]; all doses (52/81)", "result": 64, "unit": "%"}, {"measurement": "TEAE fatigue, patients", "setting": "[1]; all doses (52/81)", "result": 64, "unit": "%"}, {"measurement": "Adjudicated ILD", "setting": "[1]; [2]", "result": "5 (6)^e n (%)"}, {"measurement": "Adjudicated treatment-related ILD", "setting": "[1]; [2]", "result": "4 (5)^f n (%)"}, {"measurement": "Any TEAE", "setting": "[1]; [2]", "result": "81 (100) n (%)"}, {"measurement": "Grade ≥3 TEAE: Anemia/hemoglobin decrease", "setting": "[1]; [2]", "result": "6 (7) n (%)"}, {"measurement": "Grade ≥3 TEAE: Dyspnea", "setting": "[1]; [2]", "result": "5 (6) n (%)"}, {"measurement": "Grade ≥3 TEAE: Fatigue", "setting": "[1]; [2]", "result": "8 (10) n (%)"}, {"measurement": "Grade ≥3 TEAE: Febrile neutropenia", "setting": "[1]; [2]", "result": "5 (6) n (%)"}, {"measurement": "Grade ≥3 TEAE: Hypokalemia", "setting": "[1]; [2]", "result": "4 (5) n (%)"}, {"measurement": "Grade ≥3 TEAE: Hypoxia", "setting": "[1]; [2]", "result": "5 (6) n (%)"}, {"measurement": "Grade ≥3 TEAE: Lymphocyte count decrease/lymphopenia", "setting": "[1]; [2]", "result": "4 (5) n (%)"}, {"measurement": "Grade ≥3 TEAE: Neutrophil count decrease/neutropenia", "setting": "[1]; [2]", "result": "12 (15) n (%)"}, {"measurement": "Grade ≥3 TEAE: Platelet count decrease/thrombocytopenia", "setting": "[1]; [2]", "result": "21 (26) n (%)"}, {"measurement": "Grade ≥3 TEAE: White blood cell count decrease/leukopenia", "setting": "[1]; [2]", "result": "5 (6) n (%)"}, {"measurement": "Grade ≥3 TEAEs", "setting": "[1]; [2]", "result": "52 (64) n (%)"}, {"measurement": "Grade ≥3 treatment-related TEAEs", "setting": "[1]; [2]", "result": "38 (47) n (%)"}, {"measurement": "Serious TEAEs", "setting": "[1]; [2]", "result": "32 (40) n (%)"}, {"measurement": "Serious treatment-related TEAEs", "setting": "[1]; [2]", "result": "15 (19) n (%)"}, {"measurement": "TEAEs associated with death", "setting": "[1]; [2]", "result": "5 (6)^d n (%)"}, {"measurement": "TEAEs associated with dose interruption", "setting": "[1]; [2]", "result": "30 (37) n (%)"}, {"measurement": "TEAEs associated with dose reduction", "setting": "[1]; [2]", "result": "18 (22) n (%)"}, {"measurement": "TEAEs associated with treatment discontinuation", "setting": "[1]; [2]", "result": "7 (9)^b n (%)"}, {"measurement": "Treatment-related TEAEs", "setting": "[1]; [2]", "result": "78 (96) n (%)"}, {"measurement": "Treatment-related TEAEs associated with death", "setting": "[1]; [2]", "result": "0 n (%)"}, {"measurement": "Patients who experienced dose-limiting toxicities", "setting": "[1]; dose escalation part, 36 patients", "result": 5, "unit": "patients"}, {"measurement": "Recommended dose for expansion (RDE)", "setting": "[1]; i.v. once every 3 weeks", "result": 5.6, "unit": "mg/kg"}, {"measurement": "TEAEs associated with dose interruption", "setting": "[1]; pooled RDE […] (n = 57)", "result": "21 (37) n (%)"}, {"measurement": "TEAEs associated with dose reduction", "setting": "[1]; pooled RDE […] (n = 57)", "result": "12 (21) n (%)"}]}
{"molecule": "B1", "values": [{"measurement": "Efficacy of unconjugated HER3 antibody", "setting": "EGFR-mutated NSCLC; in combination with erlotinib", "result": "did not confer clinically meaningful efficacy"}]}
